Assay results taken from the supplement of paper PMC7125110.
± gives the standard error. This sample holds only a part of the variants without activity.

B1: glmS ribozyme (parent)
chain: AUAAAAGCGCCAGAACUACAGAAAUGUAGUUGACGAGGAGGAGGUUUAUCGAAUUUUCGGCGGAUGCCUCCAAA

Columns and labels:
Conditions in all cases: with glucosamine-6-phosphate
glucosamine-6-phosphate [1] = variants of: B1; assay: self-cleavage kobs at 40 uM GlcN6P; higher = faster cleavage; RNA array
In short: (§1)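 In situ transcription by E. coli RNA polymerase produced barcoded ribozyme variants on sequenced MiSeq chips, and a hybridised Cy3 probe tracked them at 37 °C. Glucosamine-6-phosphate was flowed in at 40 μM to 10 mM in HEPES/KCl/Mg(OAc)2 buffer. kcat and KM were taken from weighted Michaelis–Menten fits of kobs values from exponential decay fits.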

glucosamine-6-phosphate [2] = variants of: B1; assay: self-cleavage kobs at 160 uM GlcN6P; higher = faster cleavage; RNA array
In short: as §1

glucosamine-6-phosphate [3] = variants of: B1; assay: self-cleavage kobs at 640 uM GlcN6P; higher = faster cleavage; RNA array
In short: as §1

glucosamine-6-phosphate [4] = variants of: B1; assay: self-cleavage kobs at 10000 uM GlcN6P; higher = faster cleavage; RNA array
In short: as §1

glucosamine-6-phosphate [5] = variants of: B1; assay: self-cleavage kobs at 2500 uM GlcN6P; higher = faster cleavage; RNA array
In short: as §1

Variant | self-cleavage kobs at 40 uM GlcN6P (glucosamine-6-phosphate [1]) | self-cleavage kobs at 160 uM GlcN6P (glucosamine-6-phosphate [2]) | self-cleavage kobs at 640 uM GlcN6P (glucosamine-6-phosphate [3]) | self-cleavage kobs at 10000 uM GlcN6P (glucosamine-6-phosphate [4]) | self-cleavage kobs at 2500 uM GlcN6P (glucosamine-6-phosphate [5])
G41U C61A | < 1e-05 s⁻¹ | < 1e-05 s⁻¹ | < 1e-05 s⁻¹ | < 1e-05 s⁻¹ | –
A42U U46G C50U C70U | < 1e-05 s⁻¹ | – | – | < 1e-05 s⁻¹ | –
A42U G66C | < 1e-05 s⁻¹ | < 1e-05 s⁻¹ | – | – | –
G43A G51A | < 1e-05 s⁻¹ | < 1e-05 s⁻¹ | – | < 1e-05 s⁻¹ | < 1e-05 s⁻¹
G41U U45A | 8.05e-05 ± 2.1e-05 s⁻¹ | – | – | 0.000309 ± 5.5e-05 s⁻¹ | –
G41A U49G C67U C71U | < 1e-05 s⁻¹ | – | – | < 1e-05 s⁻¹ | –
G40C C61G | < 1e-05 s⁻¹ | < 1e-05 s⁻¹ | < 1e-05 s⁻¹ | < 1e-05 s⁻¹ | < 1e-05 s⁻¹
G41C G63A A64G | < 1e-05 s⁻¹ | – | – | < 1e-05 s⁻¹ | –
G44A A48U | < 1e-05 s⁻¹ | < 1e-05 s⁻¹ | < 1e-05 s⁻¹ | – | –
A39U C61A U65C | < 1e-05 s⁻¹ | – | – | – | –
A42C G44C | < 1e-05 s⁻¹ | < 1e-05 s⁻¹ | < 1e-05 s⁻¹ | < 1e-05 s⁻¹ | –
G41U C68A | < 1e-05 s⁻¹ | < 1e-05 s⁻¹ | < 1e-05 s⁻¹ | < 1e-05 s⁻¹ | < 1e-05 s⁻¹
G40A G62U | < 1e-05 s⁻¹ | < 1e-05 s⁻¹ | < 1e-05 s⁻¹ | < 1e-05 s⁻¹ | –
G41U G59U | < 1e-05 s⁻¹ | < 1e-05 s⁻¹ | < 1e-05 s⁻¹ | – | –
G40U G44C | < 1e-05 s⁻¹ | < 1e-05 s⁻¹ | < 1e-05 s⁻¹ | – | –
G43U C50G U54G A64U C71U | 7.77e-05 ± 3e-05 s⁻¹ | – | – | 0.00156 ± 0.00062 s⁻¹ | –
G43A G62C U65C C68G | < 1e-05 s⁻¹ | – | – | – | –
G40A C50G G66C | 0.00112 ± 0.00049 s⁻¹ | – | – | 0.00127 ± 0.00049 s⁻¹ | –
A39G U45C U57C C70U C71U | < 1e-05 s⁻¹ | – | – | – | –
G41A G60U | < 1e-05 s⁻¹ | – | < 1e-05 s⁻¹ | < 1e-05 s⁻¹ | –
G41C G44C | < 1e-05 s⁻¹ | < 1e-05 s⁻¹ | < 1e-05 s⁻¹ | < 1e-05 s⁻¹ | < 1e-05 s⁻¹
G40A A48C U57A C61G | < 1e-05 s⁻¹ | – | – | – | < 1e-05 s⁻¹

Variant | self-cleavage kobs at 40 uM GlcN6P (glucosamine-6-phosphate [1]) | self-cleavage kobs at 160 uM GlcN6P (glucosamine-6-phosphate [2]) | self-cleavage kobs at 640 uM GlcN6P (glucosamine-6-phosphate [3]) | self-cleavage kobs at 10000 uM GlcN6P (glucosamine-6-phosphate [4]) | self-cleavage kobs at 2500 uM GlcN6P (glucosamine-6-phosphate [5])
G40A C61U | < 1e-05 s⁻¹ | < 1e-05 s⁻¹ | < 1e-05 s⁻¹ | – | –
G41C G66A U69C | < 1e-05 s⁻¹ | < 1e-05 s⁻¹ | – | – | –
A39U G51U | < 1e-05 s⁻¹ | – | < 1e-05 s⁻¹ | < 1e-05 s⁻¹ | –
G41U G43U | < 1e-05 s⁻¹ | – | < 1e-05 s⁻¹ | < 1e-05 s⁻¹ | < 1e-05 s⁻¹
A42G G44A A48G U57C C67A | < 1e-05 s⁻¹ | – | – | – | –
A42G A48U G62U C71U | < 1e-05 s⁻¹ | – | < 1e-05 s⁻¹ | < 1e-05 s⁻¹ | < 1e-05 s⁻¹
G41U C58G | < 1e-05 s⁻¹ | < 1e-05 s⁻¹ | < 1e-05 s⁻¹ | < 1e-05 s⁻¹ | < 1e-05 s⁻¹
G41A A48G | < 1e-05 s⁻¹ | < 1e-05 s⁻¹ | < 1e-05 s⁻¹ | – | < 1e-05 s⁻¹
A42G G63C | < 1e-05 s⁻¹ | < 1e-05 s⁻¹ | < 1e-05 s⁻¹ | < 1e-05 s⁻¹ | < 1e-05 s⁻¹
G43C A53C U56C | < 1e-05 s⁻¹ | < 1e-05 s⁻¹ | – | < 1e-05 s⁻¹ | < 1e-05 s⁻¹
G40U U56A | 6.75e-05 ± 1.3e-05 s⁻¹ | 0.000124 ± 3.2e-05 s⁻¹ | 0.000381 ± 4.4e-05 s⁻¹ | 0.00344 ± 0.00064 s⁻¹ | 0.00116 ± 0.00022 s⁻¹
G43A C50G | < 1e-05 s⁻¹ | < 1e-05 s⁻¹ | < 1e-05 s⁻¹ | < 1e-05 s⁻¹ | –
A42U U46C | < 1e-05 s⁻¹ | < 1e-05 s⁻¹ | < 1e-05 s⁻¹ | – | –
A42G U55G G59C | < 1e-05 s⁻¹ | – | – | – | < 1e-05 s⁻¹
G43U G51A U65G G66A | < 1e-05 s⁻¹ | – | – | – | –
A42C G43U A48G G62C C67A C70G | < 1e-05 s⁻¹ | – | < 1e-05 s⁻¹ | – | < 1e-05 s⁻¹
G41C U69A | < 1e-05 s⁻¹ | < 1e-05 s⁻¹ | < 1e-05 s⁻¹ | – | –
G43A G44U U55C | < 1e-05 s⁻¹ | – | – | < 1e-05 s⁻¹ | –
G40A C71G | 0.000326 ± 5.2e-05 s⁻¹ | 0.00034 ± 0.00014 s⁻¹ | 0.00161 ± 0.00038 s⁻¹ | 0.00695 ± 0.0013 s⁻¹ | 0.00373 ± 0.0013 s⁻¹
A42G G62A | < 1e-05 s⁻¹ | < 1e-05 s⁻¹ | < 1e-05 s⁻¹ | < 1e-05 s⁻¹ | < 1e-05 s⁻¹
A39G G60U | < 1e-05 s⁻¹ | < 1e-05 s⁻¹ | < 1e-05 s⁻¹ | – | –
A39G U55G C67A | 0.000369 ± 0.00011 s⁻¹ | – | – | 0.0117 ± 0.003 s⁻¹ | –
